Source: patent US20160083466A1 (Regeneron, published 2016)

B1: H4H10871P (antibody, human IgG4, V domains shown)
VH: QVQLVQSGAEVMKPGASVKVSCKSSDFAFTTYGISWVRQAPGQGLEWMGWISAYNGNTNYEQRFQGRITMTTDTSTTTVYMELRSLRSDDTAVYYCARDPDYCSSNTCSDAFDLWGQGTMVTVSS
VL: DIQMTQSPSSLSASVRDRVTITCRASQGITNYLAWYQQKPGKVPKVLIYAASTLQSGVPSRFSGSGSGTEFTLAISSLQPEDVATYFCQQYGSAPWTFGQGTKVEIK
notes: H4H prefix = human IgG4 Fc
B2: H4H10905P (antibody, human IgG4, V domains shown)
VH: QVQLVQSGAEVKKPGTSVKVSCKASGYTFTNYGISWVRQAPGQGLEWLGWISAYNDNTDYAQKLQARVTMTTDTFTSTAYMDLRSLRSDDTAVYYCARVPITGTTSSFDFWGQGTLVTVSS
VL: DIQMTQSPSSLSASVGDRVTISCRASQTIYSYLNWFQQKPGKAPKLLIYDASSLQSGVPSRFSGSGSGTHFTLTISSLQPEDFATYFCQQTYSTPLTFGGGTKVEIK
notes: H4H prefix = human IgG4 Fc
B3: H4H10897P (antibody, human IgG4, V domains shown)
VH: QVQLQESGPGLVKPSETLSLTCTVSGGSISDYYWSWIRQPPGKGLEWIGHIYYSGSTNHNPSLKSRVAISVDTSKNQFSLRLYSVTAADTAVYYCARDGYSSSSGFYYFGMDVWGQGTTVTVSS
VL: DIQLTQSPSFLSASVGDRVTITCWASQDINSYLAWYQQKPGKAPKLLIFAASTLQGGVPSRFSGSGSGTEFTLTISSLQPEDFATYYCQHLSSFPPTFGQGTRLEIK
notes: H4H prefix = human IgG4 Fc
B4: H4H10876P (antibody, human IgG4, V domains shown)
VH: QVQLVQSGAEVKKPGASVKVSCKASEYTFSNYGISWVRQAPGQGLEWLGWIGAYSGFTKYAQKVQDRITMTTDASTTTAYMELRNLRSDDTAVYYCARVGTGTDSYFDFWGQGTLVTVSS
VL: DIQMTQSPSSLSASVGDRVTITCRASQNINSHLNWYQQKPGKAPKLLIYTASSLQSGVPLRFSGSGSGTDFTLTISSLQPEDFGIYICQQTYITPLTFGGGTKVEIK
notes: H4H prefix = human IgG4 Fc

Target: T1, rat IL-25 expressed with a C-terminal myc-myc-hexahistidine tag (rat)
T1 construct: also called Rat IL-25-MMH
T1 chain: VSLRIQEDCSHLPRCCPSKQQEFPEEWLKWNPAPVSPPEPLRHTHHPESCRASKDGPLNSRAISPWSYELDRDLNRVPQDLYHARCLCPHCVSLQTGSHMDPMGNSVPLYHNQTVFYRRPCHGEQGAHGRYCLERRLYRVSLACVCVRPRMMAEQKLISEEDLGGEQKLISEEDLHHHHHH
Test: SPR Biacore, antibody captured, 37C;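 as to 100 nM Monkey IL-25-MMH Bound (RU): biacore 4000 surface plasmon resonance biosensor measuring binding of IL-25-MMH to purified anti-IL-25 antibodies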;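 as to 100 nM Mouse IL-25-MMH Bound (RU): Real-time sensorgrams of IL-25-MMH binding to purified anti-IL-25 antibodies, rate constants obtained by fitting a 1:1 binding model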
Experimental: (§1) Equilibrium dissociation constants (KD values) for IL-25 binding to purified anti-IL-25 antibodies were determined using a real-time surface plasmon resonance biosensor assay on a Biacore 4000 instrument (GE Healthcare). […] All the IL-25 reagents were expressed with a C-terminal myc-myc-hexahistidine tag (referred to herein as “IL-25-MMH”). […] Kinetic association (kₐ) and dissociation (kd) rate constants were determined by fitting the real-time sensorgrams to a 1:1 binding model using Scrubber 2.0c curve fitting software.

Going from B1 to B2, the “100 nM Rat IL-25-MMH Bound (RU)” value rises from 45 RU to 49 RU.

Going from B3 to B4, the “100 nM Rat IL-25-MMH Bound (RU)” value rises from 22 RU to 53 RU.

First: B1
Second: B2
The Kd of the first is 6.3-fold lower: 0.0602 nM for the first, 0.377 nM for the second. The first binds more tightly here.

Going from B3 to B4, the Kd falls from 24.6 nM to 0.238 nM (100-fold). The second binds more tightly here.

First: B1
Second: B2
The koff of the first is 3.2-fold lower: 5.64e-05 s⁻¹ for the first, 0.000181 s⁻¹ for the second.

Going from B3 to B4, the koff falls from 0.00601 s⁻¹ to 0.000107 s⁻¹ (56-fold).

First: B1
Second: B2
The kon of the first is 1.9-fold higher: 937000 M⁻¹ s⁻¹ for the first, 481000 M⁻¹ s⁻¹ for the second.

Compared with B3, B4 is 1.8-fold higher in kon: 245000 M⁻¹ s⁻¹ for the first, 450000 M⁻¹ s⁻¹ for the second.

Going from B1 to B2, the t½ falls from 3.42 h to 1.07 h (3.2-fold).

Going from B3 to B4, the t½ rises from 0.0317 h to 1.8 h (57-fold).

Target: T2, human IL-25 expressed with a C-terminal myc-myc-hexahistidine tag (human)
T2 construct: also called hIL-25-MMH; Human IL-25-MMH
T2 chain: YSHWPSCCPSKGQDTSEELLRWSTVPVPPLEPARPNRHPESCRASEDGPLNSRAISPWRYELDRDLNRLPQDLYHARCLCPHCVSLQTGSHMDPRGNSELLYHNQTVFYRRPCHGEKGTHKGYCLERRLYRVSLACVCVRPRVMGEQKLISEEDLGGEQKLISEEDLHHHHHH
Test: competition ELISA, 2 nM hIL-25-MMH binding to coated hIL-17RB-hFc
Experimental: (§2) Data analysis was performed using a sigmoidal dose-response model within Prism™ software (GraphPad). […] The absorbance values of the wells containing the highest concentration for each antibody were used to determine the percent maximum blockade.

First: B1
Second: B2
The “% Maximum blocking of 200 nM antibody” value of the first is higher: 92% for the first, 86% for the second.

First: B3
Second: B4
The “% Maximum blocking of 200 nM antibody” value of the first is higher: 94% for the first, 89% for the second.

Target: T2, human IL-25 expressed with a C-terminal …
Test: cell-based or functional assay

B1 and B4 are within 1.5-fold of each other in “IC50 values of antibodies for blocking IL-5 release from Donor #727058-059” value: 0.118 nM for the first, 0.172 nM for the second.

Compared with B1, B4 is 4.9-fold lower in “IC50 values of antibodies for blocking IL-5 release from Donor #727060” value: 0.636 nM for the first, 0.13 nM for the second.

Target: T2, human IL-25 expressed with a C-terminal …
Test: BLI Octet, hIL-25-MMH captured on anti-Penta-His sensor, 25C
Experimental: Binding competition between anti-IL-25 monoclonal antibodies was determined using a real time, label-free bio-layer interferometry assay on an Octet QK384 biosensor (Pall ForteBio Corp.).
The biosensors were washed in HBST kinetics buffer in between every step of the experiment. The real-time binding response was monitored during the course of the experiment and the binding response at the end of every step was recorded.

First: B1
Second: B2
The “50 ug/mL mAb-1 Binding (nm)” value of the first is lower: 1.12 nm for the first, 1.59 nm for the second.

First: B3
Second: B4
The “50 ug/mL mAb-1 Binding (nm)” value of the first is higher: 1.12 nm for the first, 1.07 nm for the second.

Target: T3, mouse IL-25 expressed with a C-terminal myc-myc-hexahistidine tag (mouse)
T3 construct: also called Mouse IL-25-MMH; mIL-25-MMH
T3 chain: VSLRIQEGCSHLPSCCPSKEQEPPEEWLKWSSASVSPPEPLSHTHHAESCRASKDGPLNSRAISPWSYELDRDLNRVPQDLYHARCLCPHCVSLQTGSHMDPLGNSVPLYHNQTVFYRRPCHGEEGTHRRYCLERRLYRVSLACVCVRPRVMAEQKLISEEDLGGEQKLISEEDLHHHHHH
Test: SPR Biacore, antibody captured, 37C;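 as to 100 nM Monkey IL-25-MMH Bound (RU): biacore 4000 surface plasmon resonance biosensor measuring binding of IL-25-MMH to purified anti-IL-25 antibodies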;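 as to 100 nM Mouse IL-25-MMH Bound (RU): Real-time sensorgrams of IL-25-MMH binding to purified anti-IL-25 antibodies, rate constants obtained by fitting a 1:1 binding model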

Going from B1 to B2, the “100 nM Mouse IL-25-MMH Bound (RU)” value rises from 41 RU to 47 RU.

Compared with B3, B4 is higher in “100 nM Mouse IL-25-MMH Bound (RU)” value: 17 RU for the first, 51 RU for the second.

Going from B1 to B2, the Kd rises from 0.258 nM to 0.441 nM (1.7-fold). The first binds more tightly here.

Going from B3 to B4, the Kd falls from 36.2 nM to 0.243 nM (150-fold). The second binds more tightly here.

Compared with B1, B2 is 2.1-fold higher in koff: 8.29e-05 s⁻¹ for the first, 0.000178 s⁻¹ for the second.

First: B3
Second: B4
The koff of the first is 71-fold higher: 0.00641 s⁻¹ for the first, 8.97e-05 s⁻¹ for the second.

B1 and B2 are within 1.5-fold of each other in kon: 322000 M⁻¹ s⁻¹ for the first, 403000 M⁻¹ s⁻¹ for the second.

Going from B3 to B4, the kon rises from 177000 M⁻¹ s⁻¹ to 369000 M⁻¹ s⁻¹ (2.1-fold).

Compared with B1, B2 is 2.1-fold lower in t½: 2.32 h for the first, 1.08 h for the second.

First: B3
Second: B4
The t½ of the first is 72-fold lower: 0.03 h for the first, 2.15 h for the second.

Target: T3, mouse IL-25 expressed with a C-terminal …
Test: SPR Biacore, antibody captured, 25C;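 as to 100 nM Rat IL-25-MMH Bound (RU): purified anti-IL-25 antibodies were tested by real-time surface plasmon resonance on a Biacore 4000, with rate constants obtained from sensorgram fits to a 1:1 binding model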
Experimental: as §1

Going from B1 to B2, the “100 nM Mouse IL-25-MMH Bound (RU)” value rises from 30 RU to 43 RU.

Going from B3 to B4, the “100 nM Mouse IL-25-MMH Bound (RU)” value rises from 20 RU to 40 RU.

B1 and B2 are within 1.5-fold of each other in Kd: 0.918 nM for the first, 1.17 nM for the second.

Going from B3 to B4, the Kd falls from 7.05 nM to 0.57 nM (12-fold). The second binds more tightly here.

B1 and B2 are within 1.5-fold of each other in koff: 0.000111 s⁻¹ for the first, 0.000145 s⁻¹ for the second.

First: B3
Second: B4
The koff of the first is 11-fold higher: 0.00104 s⁻¹ for the first, 9.89e-05 s⁻¹ for the second.

B1 and B2 are within 1.5-fold of each other in kon: 121000 M⁻¹ s⁻¹ for the first, 124000 M⁻¹ s⁻¹ for the second.

B3 and B4 are within 1.5-fold of each other in kon: 148000 M⁻¹ s⁻¹ for the first, 174000 M⁻¹ s⁻¹ for the second.

B1 and B2 are within 1.5-fold of each other in t½: 1.73 h for the first, 1.33 h for the second.

Compared with B3, B4 is 11-fold higher in t½: 0.183 h for the first, 1.95 h for the second.

Target: T4, monkey IL-25 expressed with a C-terminal myc-myc-hexahistidine tag (M. fascicularis (cynomolgus monkey))
T4 chain: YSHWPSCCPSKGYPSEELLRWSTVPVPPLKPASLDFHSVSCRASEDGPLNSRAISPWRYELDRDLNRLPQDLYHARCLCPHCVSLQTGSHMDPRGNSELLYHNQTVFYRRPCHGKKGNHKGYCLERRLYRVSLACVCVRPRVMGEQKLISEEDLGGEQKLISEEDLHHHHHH
Test: cell-based or functional assay

Compared with B1, B2 is higher in “IC50, luciferase reporter cells, 12 pM MfIL-25-MMH” value: 8.8e-11 M for the first, 2.1e-10 M for the second.

Going from B3 to B4, the “IC50, luciferase reporter cells, 12 pM MfIL-25-MMH” value falls from 4e-10 M to 2.1e-10 M.

Target: T2, human IL-25 expressed with a C-terminal …
Test: cell-based or functional assay
Remark: another data set of the same source

First: B1
Second: B2
The “IC50, luciferase reporter cells, 5 pM hIL-25-MMH” value of the first is lower: 3.2e-10 M for the first, 5.1e-10 M for the second.

B3 and B4 are the same in “IC50, luciferase reporter cells, 5 pM hIL-25-MMH” value: 4.6e-10 M for the first, 4.6e-10 M for the second.

Target: T3, mouse IL-25 expressed with a C-terminal …
Test: cell-based or functional assay

Going from B1 to B2, the “IC50, luciferase reporter cells, 10 pM mIL-25-MMH” value rises from 6.7e-10 M to 6.8e-10 M.

Compared with B3, B4 is lower in “IC50, luciferase reporter cells, 10 pM mIL-25-MMH” value: 1.5e-08 M for the first, 8.8e-10 M for the second.

Target: T4, monkey IL-25 expressed with a …
Test: SPR Biacore, antibody captured, 37C;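 as to 100 nM Monkey IL-25-MMH Bound (RU): biacore 4000 surface plasmon resonance biosensor measuring binding of IL-25-MMH to purified anti-IL-25 antibodies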;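 as to 100 nM Mouse IL-25-MMH Bound (RU): Real-time sensorgrams of IL-25-MMH binding to purified anti-IL-25 antibodies, rate constants obtained by fitting a 1:1 binding model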
Experimental: as §1

First: B1
Second: B2
The “100 nM Monkey IL-25-MMH Bound (RU)” value of the first is lower: 54 RU for the first, 59 RU for the second.

First: B3
Second: B4
The “100 nM Monkey IL-25-MMH Bound (RU)” value of the first is lower: 49 RU for the first, 64 RU for the second.

Going from B1 to B2, the Kd rises from 0.0546 nM to 0.135 nM (2.5-fold).

Compared with B3, B4 is 1.8-fold lower in Kd: 0.189 nM for the first, 0.104 nM for the second. The second binds more tightly here.

B1 and B2 are within 1.5-fold of each other in koff: 7.4e-05 s⁻¹ for the first, 9.01e-05 s⁻¹ for the second.

Compared with B3, B4 is 4.2-fold lower in koff: 0.000231 s⁻¹ for the first, 5.45e-05 s⁻¹ for the second.

Compared with B1, B2 is 2-fold lower in kon: 1.35e+06 M⁻¹ s⁻¹ for the first, 668000 M⁻¹ s⁻¹ for the second.

Going from B3 to B4, the kon falls from 1.22e+06 M⁻¹ s⁻¹ to 524000 M⁻¹ s⁻¹ (2.3-fold).

B1 and B2 are within 1.5-fold of each other in t½: 2.6 h for the first, 2.13 h for the second.

Compared with B3, B4 is 4.2-fold higher in t½: 0.833 h for the first, 3.53 h for the second.

Target: T1, rat IL-25 expressed with a C-terminal …
Test: SPR Biacore, antibody captured, 25C;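 as to 100 nM Rat IL-25-MMH Bound (RU): purified anti-IL-25 antibodies were tested by real-time surface plasmon resonance on a Biacore 4000, with rate constants obtained from sensorgram fits to a 1:1 binding model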
Experimental: as §1

First: B1
Second: B2
The “100 nM Rat IL-25-MMH Bound (RU)” value of the first is lower: 37 RU for the first, 45 RU for the second.

First: B3
Second: B4
The “100 nM Rat IL-25-MMH Bound (RU)” value of the first is lower: 23 RU for the first, 45 RU for the second.

Going from B1 to B2, the Kd rises from 0.132 nM to 0.81 nM (6.1-fold). The first binds more tightly here.

Compared with B3, B4 is 7.1-fold lower in Kd: 2.42 nM for the first, 0.341 nM for the second. The second binds more tightly here.

Compared with B1, B2 is 1.9-fold higher in koff: 7.23e-05 s⁻¹ for the first, 0.000135 s⁻¹ for the second.

Going from B3 to B4, the koff falls from 0.000807 s⁻¹ to 8.81e-05 s⁻¹ (9.2-fold).

Going from B1 to B2, the kon falls from 548000 M⁻¹ s⁻¹ to 167000 M⁻¹ s⁻¹ (3.3-fold).

B3 and B4 are within 1.5-fold of each other in kon: 333000 M⁻¹ s⁻¹ for the first, 259000 M⁻¹ s⁻¹ for the second.

Compared with B1, B2 is 1.9-fold lower in t½: 2.67 h for the first, 1.42 h for the second.

First: B3
Second: B4
The t½ of the first is 9.4-fold lower: 0.233 h for the first, 2.18 h for the second.

Target: T2, human IL-25 expressed with a C-terminal …
Test: competition ELISA, 2 nM hIL-25-MMH binding to coated hIL-17RB-hFc; (*) below theoretical bottom of the assay
Experimental: as §2

B1 and B2 are within 1.5-fold of each other in IC50: 0.71 nM for the first, 0.53 nM for the second.

Compared with B3, B4 is 2-fold higher in IC50: 0.32 nM for the first, 0.65 nM for the second. The first is the more potent here.
